# Test results from paper PMC9328315, “Streptococcus pneumoniae binds collagens and C1q via the SSURE repeats of the PfbB adhesin” (Molecular Microbiology, 2022).
# B1: N‐SSURE, recombinant polyhistidine‐tagged polypeptide encompassing amino acids 144–293 (N‐terminal SSURE domain) of the PfbB protein (domain or fragment)
# chain: AETTPEQVKGGVKENTKDSIDVPAAYLEKAEGKGPFTAGVNQVIPYELFAGDGMLTRLLLKASDNAPWSDNGTAKNPALPPLEGLTKGKYFYEVDLNGNTVGKQGQALIDQLRANGTQTYKATVKVYGNKDGKADLTNLVATKNVDININ
# notes: also called N‐terminal repeat; SSURE 1
# Key:
# Experiment in all cases: ELISA; titration: wells sensitized with 1 μg/ml of collagen type I, II, III, IV, VI or C1q; increasing concentrations of C‐SSURE or N‐SSURE (0,016–10 μg/ml), detected with anti‐His antibody; dissociation constants calculated from the titration curves (Figure 3c,d)
# [1] = biological target: complement component C1q (human) (UniProt P02745)
# Sequence of complement component C1q (human) (P02745 23-245, chain 1 of 3): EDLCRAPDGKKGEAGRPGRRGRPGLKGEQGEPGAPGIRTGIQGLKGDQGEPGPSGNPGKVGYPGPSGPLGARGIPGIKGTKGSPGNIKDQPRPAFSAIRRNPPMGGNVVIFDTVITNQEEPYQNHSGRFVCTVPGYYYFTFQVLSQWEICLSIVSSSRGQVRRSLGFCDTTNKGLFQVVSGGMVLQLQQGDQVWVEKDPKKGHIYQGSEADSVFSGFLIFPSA
# Sequence of complement component C1q (human) (P02746 28-253, chain 2 of 3, further chain): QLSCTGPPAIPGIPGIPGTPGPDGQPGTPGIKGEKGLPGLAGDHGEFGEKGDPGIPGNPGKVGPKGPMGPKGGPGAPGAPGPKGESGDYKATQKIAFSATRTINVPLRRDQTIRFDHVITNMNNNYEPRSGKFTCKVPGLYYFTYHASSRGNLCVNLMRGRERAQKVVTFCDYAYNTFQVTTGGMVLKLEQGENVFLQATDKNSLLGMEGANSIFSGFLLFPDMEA
# Sequence of complement component C1q (human) (P02747 29-245, chain 3 of 3, further chain): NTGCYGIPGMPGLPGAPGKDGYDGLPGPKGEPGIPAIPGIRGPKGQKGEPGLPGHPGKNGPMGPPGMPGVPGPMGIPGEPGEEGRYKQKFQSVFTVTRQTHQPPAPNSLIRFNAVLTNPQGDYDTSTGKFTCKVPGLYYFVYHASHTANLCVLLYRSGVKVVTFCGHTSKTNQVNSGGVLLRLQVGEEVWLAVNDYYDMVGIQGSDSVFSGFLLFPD
# [2] = biological target: type I collagen (calf (from calfskin)) (UniProt P02453)
# Sequence of type I collagen (calf (from calfskin)) (P02453 162-1217, chain 1 of 2): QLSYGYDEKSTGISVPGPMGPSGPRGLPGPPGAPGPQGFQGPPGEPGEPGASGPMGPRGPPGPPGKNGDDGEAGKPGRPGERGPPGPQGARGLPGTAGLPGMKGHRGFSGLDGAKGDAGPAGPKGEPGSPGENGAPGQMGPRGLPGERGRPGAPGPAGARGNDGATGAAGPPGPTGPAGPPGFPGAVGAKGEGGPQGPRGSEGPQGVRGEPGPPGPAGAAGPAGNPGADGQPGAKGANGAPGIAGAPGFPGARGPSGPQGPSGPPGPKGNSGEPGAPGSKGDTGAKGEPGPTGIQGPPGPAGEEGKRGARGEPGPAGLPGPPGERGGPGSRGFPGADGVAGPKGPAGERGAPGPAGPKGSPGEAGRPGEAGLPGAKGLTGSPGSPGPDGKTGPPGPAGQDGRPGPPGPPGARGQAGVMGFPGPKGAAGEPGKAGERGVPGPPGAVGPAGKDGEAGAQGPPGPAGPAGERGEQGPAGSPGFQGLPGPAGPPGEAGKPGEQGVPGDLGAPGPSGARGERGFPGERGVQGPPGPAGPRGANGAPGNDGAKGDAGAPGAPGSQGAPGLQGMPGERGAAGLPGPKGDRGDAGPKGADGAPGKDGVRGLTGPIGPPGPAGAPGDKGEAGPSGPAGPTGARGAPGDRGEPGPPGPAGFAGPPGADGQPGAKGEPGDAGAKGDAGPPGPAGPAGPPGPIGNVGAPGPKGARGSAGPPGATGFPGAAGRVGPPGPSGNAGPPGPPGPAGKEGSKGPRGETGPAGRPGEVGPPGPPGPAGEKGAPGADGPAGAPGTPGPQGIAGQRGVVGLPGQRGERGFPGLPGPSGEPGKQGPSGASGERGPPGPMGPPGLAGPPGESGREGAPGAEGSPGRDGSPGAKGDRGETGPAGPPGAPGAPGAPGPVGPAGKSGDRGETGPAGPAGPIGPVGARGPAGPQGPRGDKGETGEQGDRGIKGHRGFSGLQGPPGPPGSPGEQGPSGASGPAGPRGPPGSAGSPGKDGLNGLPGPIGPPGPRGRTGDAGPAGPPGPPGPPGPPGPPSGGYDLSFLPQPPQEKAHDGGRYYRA
# Sequence of type I collagen (calf (from calfskin)) (P02465 80-1117, chain 2 of 2, further chain): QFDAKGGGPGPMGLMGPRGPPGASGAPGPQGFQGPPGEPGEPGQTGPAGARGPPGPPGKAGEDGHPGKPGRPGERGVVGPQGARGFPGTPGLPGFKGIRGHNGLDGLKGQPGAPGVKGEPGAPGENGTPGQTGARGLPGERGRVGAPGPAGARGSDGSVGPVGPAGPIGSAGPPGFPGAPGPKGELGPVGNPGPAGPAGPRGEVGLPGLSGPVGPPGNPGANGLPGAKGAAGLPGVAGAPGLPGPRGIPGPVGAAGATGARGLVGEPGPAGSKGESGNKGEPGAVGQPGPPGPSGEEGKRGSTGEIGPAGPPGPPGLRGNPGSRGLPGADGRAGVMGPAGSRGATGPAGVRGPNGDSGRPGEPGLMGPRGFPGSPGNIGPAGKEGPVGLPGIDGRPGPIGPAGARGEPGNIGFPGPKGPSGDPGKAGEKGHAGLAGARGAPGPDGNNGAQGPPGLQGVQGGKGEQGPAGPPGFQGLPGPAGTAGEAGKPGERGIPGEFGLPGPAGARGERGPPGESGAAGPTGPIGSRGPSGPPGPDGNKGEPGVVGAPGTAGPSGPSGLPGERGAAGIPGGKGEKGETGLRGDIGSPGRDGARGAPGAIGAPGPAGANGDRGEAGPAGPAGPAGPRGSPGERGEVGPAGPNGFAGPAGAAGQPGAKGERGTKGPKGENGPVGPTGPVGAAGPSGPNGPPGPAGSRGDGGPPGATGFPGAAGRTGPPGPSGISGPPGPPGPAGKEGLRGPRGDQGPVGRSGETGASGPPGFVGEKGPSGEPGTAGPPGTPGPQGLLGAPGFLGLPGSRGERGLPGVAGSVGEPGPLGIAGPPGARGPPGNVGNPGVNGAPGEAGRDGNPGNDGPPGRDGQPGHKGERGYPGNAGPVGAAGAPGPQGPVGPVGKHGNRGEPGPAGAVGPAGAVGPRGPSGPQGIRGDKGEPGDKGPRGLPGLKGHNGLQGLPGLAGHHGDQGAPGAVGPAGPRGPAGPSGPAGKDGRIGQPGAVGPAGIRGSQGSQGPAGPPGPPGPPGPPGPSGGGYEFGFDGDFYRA
# [3] = biological target: type III collagen (calf (from calfskin)) (UniProt P04258)
# Sequence of type III collagen (calf (from calfskin)) (P04258 whole entry): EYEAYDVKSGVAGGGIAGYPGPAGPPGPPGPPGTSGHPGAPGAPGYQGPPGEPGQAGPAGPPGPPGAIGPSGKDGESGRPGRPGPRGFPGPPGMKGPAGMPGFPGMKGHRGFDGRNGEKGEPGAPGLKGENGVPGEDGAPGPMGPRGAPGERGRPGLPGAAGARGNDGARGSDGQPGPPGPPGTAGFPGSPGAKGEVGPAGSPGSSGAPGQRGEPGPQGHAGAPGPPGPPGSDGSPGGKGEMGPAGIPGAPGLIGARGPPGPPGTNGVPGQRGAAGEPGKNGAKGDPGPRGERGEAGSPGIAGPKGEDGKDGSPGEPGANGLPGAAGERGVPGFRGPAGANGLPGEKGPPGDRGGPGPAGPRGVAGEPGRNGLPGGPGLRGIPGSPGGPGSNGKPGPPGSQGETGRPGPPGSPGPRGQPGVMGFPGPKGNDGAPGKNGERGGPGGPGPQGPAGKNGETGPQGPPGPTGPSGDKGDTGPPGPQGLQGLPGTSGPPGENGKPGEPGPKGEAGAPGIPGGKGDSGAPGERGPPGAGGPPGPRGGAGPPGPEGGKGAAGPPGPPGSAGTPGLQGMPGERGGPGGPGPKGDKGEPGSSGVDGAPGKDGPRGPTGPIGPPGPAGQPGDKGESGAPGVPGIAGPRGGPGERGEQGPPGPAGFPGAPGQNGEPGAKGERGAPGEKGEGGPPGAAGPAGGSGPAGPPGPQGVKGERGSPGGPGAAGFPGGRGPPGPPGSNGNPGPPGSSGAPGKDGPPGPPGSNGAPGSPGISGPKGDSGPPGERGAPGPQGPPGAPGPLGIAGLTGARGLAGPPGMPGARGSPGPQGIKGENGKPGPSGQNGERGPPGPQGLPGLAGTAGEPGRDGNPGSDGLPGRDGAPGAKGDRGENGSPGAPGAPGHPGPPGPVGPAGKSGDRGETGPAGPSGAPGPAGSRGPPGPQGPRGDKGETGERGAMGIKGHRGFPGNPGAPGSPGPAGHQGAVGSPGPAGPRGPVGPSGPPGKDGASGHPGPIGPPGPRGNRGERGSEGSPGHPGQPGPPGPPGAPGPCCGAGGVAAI
# [4] = biological target: human type IV collagen (human, UniProt P02462 173-1669; P08572 184-1712); details: both partners purified
# [5] = biological target: human type VI collagen (human, UniProt P12109 20-1028; P12110 21-1019; P12111 26-3177); details: both partners purified
Molecule,Kd [1],Kd [2],Kd [3],Kd [4],Kd [5]
"C‐SSURE, recombinant polyhistidine‐tagged polypeptide encompassing amino acids 902–1053 (C‐terminal SSURE domain) of the PfbB protein (domain or fragment)",5210 nM,1720 nM,1160 nM,,
B1,,,,1580 ± 100 nM,1200 ± 300 nM
